How the values were obtained:
PC3-PIP cells [1] = test: Mitochondrial potential assay (TMRE); type: cell-based; settings: 24 h, 1.5 μg/ml DOX or equivalent molar amount
Method: PC3-PIP cells (2×10^4) were seeded on 96-well plates. […] After 24 h, tetramethylrhodamine ethyl ester (TMRE; Abcam, UK) was added according to the protocol provided by the manufacturer. Fluorescence intensity was measured at an excitation wavelength of 549 nm and an emission wavelength of 575 nm.

PSMA [2] = target: T1, PSMA (Homo sapiens, UniProt Q04609); test: Surface plasmon resonance binding assay; settings: for Koff / Kon: SPR, immobilized NB, 1:1 Langmuir model, 25° C., means ± SD; for binding constant (Ka) to PSMA: stated per SEQ ID NO in the description
T1 construct: purified extracellular domain of PSMA [residues 44-750; purchased from Caltech Protein Expression Center, CA]; purchased Caltech Protein Expression Center, CA
Method: The affinity of each NB to PSMA was determined by using surface plasmon resonance (SPR) spectroscopy on a ProteOn XPR36 chip (Bio-Rad, CA). The chip was activated by using sulfo-NHS (0.1 M N-hydroxysuccinimide) and EDC [0.4 M 1-ethyl-3-(3-dimethylaminopropyl)-carbodiimide]. Each NB (0.2 μg) was immobilized in a 10 mM sodium acetate buffer, pH 5.0, at a flow rate of 30 μl/min. Bovine serum albumin (BSA) (3 μg) was immobilized on the chip as a negative control. Unbound esters were deactivated with 1 M ethanolamine HCl at pH 8.5. The soluble PSMA was then applied over the chip at concentrations of 2.94, 5.88, 11.75, 23.50, or 47.00 nM (for NBs 8, 13, and 37) or of 25, 50, 100, 1,600, or 3,200 pM (for NB7), at a flow rate of 25 μl/min. During this time, the association between the NBs and PSMA was measured. The dissociation was measured while flowing 50 μl/min PBST (namely, a phosphate-buffered saline with 0.005% Tween). For each protein complex, a binding sensogram was generated by subtracting the values of the PSMA response to BSA from those of the PSMA response to the NBs. The dissociation constant (KD) was determined from the Langmuir 1:1 kinetic model. The temperature throughout the binding measurements was set at 25° C.

[3] = system: PC3-PIP (PSMA+) and PC3-flu (PSMA−) xenografts; test: In vivo optical (NIR) imaging of labeled NBs; design: species or system athymic nude mice; settings: for duration until the fluorescent signal was no longer detected (late time point): whole-body NIR imaging, 1.5 nmole AlexaFluor680-labeled NB i.v.
Method: Tumor xenografts were generated in 6-week old male athymic nude mice by using PC3-PIP and PC3-flu cells. Each mouse was simultaneously injected subcutaneously with 2×10^6 cells of each line, diluted 1:1 with Matrigel (Corning, USA); PC3-PIP cells were injected above the right upper flank, while PC3-flu cells were injected above the left one. Nine days after the inoculation, as the tumors reached a size of ˜200 mm^3, these mice were injected intravenously with 1.5 nmole of either NB7, NB8, NB13, or NB37 (four mice per group) labeled with NHS-ester AlexaFluor680 (Invitrogen). In addition to these 16 mice, four tumor-bearing mice were not injected with any NB, while four other mice were injected with the labeled NBs (a different NB per mouse) but were not implanted with a xenograft. The mice were anesthetized with isoflurane at different time points (see below) and the distribution of the fluorescently labeled protein was measured in near infra-red (NIR) optical imaging using the IVIS Lumina system (PerkinElmer, USA). Exposure time was set at 1 s. The fluorescence signal was measured at the time of injection, and 0.5, 1, 2, 3, 6, 10, 18, 24, 28, 32, 36, 48 and 56 h after injection. Images of the mice were acquired 3 and 6 h after injection, and again when a signal was no longer detected (24-56 h after injection). At each time point, one mouse from each group of tumor-bearing mice that had been injected with a NB was euthanized for an ex vivo quantification of the fluorescent signal in its organs, using the Living Image software.

PSMA [4] = target: T1, PSMA; test: Small-angle X-ray scattering of PSMA-NB complexes; settings: for Dmax / Rg: PSMA + NB; for shift of Rg of PSMA-NB complex from the original Rg of PSMA (43 Å) / change of Dmax on binding of PSMA to NB: SAXS; for shift of Rg of PSMA-NB complex from the original Rg of PSMA (43 Å): PSMA 0.5 mg/ml; for change of Dmax on binding of PSMA to NB: PSMA alone 115 Å
Method: The small-angle X-ray scattering (SAXS) of monomeric PSMA was measured in PBS at a final concentration of 0.5-3 mg/ml. For PSMA-NB complex samples, the concentration of PSMA was 0.5 mg/ml and the concentrations of the NBs were 0.1-0.5 mg/ml. Measurements were performed in beamline BM29 at the ESRF. The X-ray wavelength was 1.5 Å and the temperature was 4° C. The detector was Pilatus 1 M and the sample-to-detector distance was set at 2.86 m, with a scattering vector (q) range of 0.0025-0.5 Å^−1. At a scattering angle of 2θ, the magnitude of the scattering vector (q) is defined as: […]
The experimental SAXS data for all samples were linear in the low q, Guinier region. The radii of gyration (Rg) were derived from data in the qRg<1 region by using the Guinier approximation:
The inventors analyzed the small-angle region (0.012<q<0.08 Å^−1) of the scattering profiles using the Guinier approximation embedded in the GNOM method.
The scattering curve reflects structural characteristics in reciprocal space. Scattering profiles were translated into real space by Fourier transformation, resulting in the pairwise-distance distribution function P(r). This function reflects the distances between pairs of scattering points within the macromolecule, allowing the determination of the maximum dimension of the particle (Dmax). To obtain a reliable quantification of Dmax, the inventors incorporated GNOM with in-house scripts. The Rg of monomeric PSMA extracted from SAXS data was compared to the calculated Rg from the crystal structure of monomeric PSMA (PDB 3D7D) using CRYSOL. The overall three-dimensional ab initio models of PSMA and PSMA-NB complexes were restored from the experimental scattering data by using Dammin. Shape reconstruction was performed to represent the molecular shape as a closely packed sphere assembly within a search volume defined by Dmax, chosen with a χ^2<1.3 for all models. For all samples, 20 low-resolution models were averaged using the program DAMAVER to yield an averaged model representing the general structural features of each reconstruction.

PC3-PIP cells [5] = test: Time-dependent quantification of NB internalization; type: cell-based; settings: 100 nM, imaged every 40 min for 16 h
Method: NB7, NB8, NB13, and NB37, each labeled with Dylight488, were individually incubated for 1 h (at 100 nM) in a 96-well plate. On each well, 1.5×10^4 PC3-PIP cells were seeded and grown overnight, and then the wells were imaged every 40 min for a total of 16 h, using the Operetta CLS high-content analysis system (Perkin Elmer). Each well was imaged as 24 fields, which were later combined to create an image of the entire well. Using the Operetta analysis software, the cells were qualitatively classified into two groups according to the distribution of NBs: (i) mostly on the cell membrane, and (ii) mostly inside the cytoplasm. The number of cells in each group was quantified at each time point and the ratio between the numbers of cells in each group was calculated.

PC3-PIP (PSMA+) cells = test: FACS cell binding assay, PC3-PIP cells; type: cell-based; settings: effect of K43PrK mutation
Method: Once the cells reached 70% confluence, 10^5 cells were added to each well of 96-well U-shaped bottom plates (Greiner Bio-One, Austria), centrifuged at 150 g for 5 min, and washed with PBSA (namely, PBS+1 g/1 BSA). NBs were added to the cells in concentrations of 0.1, 0.5, 2, 5, 10, 20, 50, 100, 500, or 1000 nM. The cells were incubated with the NBs for 2 h, followed by three PBSA washing steps. An anti-His antibody conjugated to fluorescein isothiocyanate (FITC) (Invitrogen) was then added at a dilution of 1:100, incubated with the cells for 1 h, and washed three times with PBSA. The cells were kept on ice throughout the experiment. The fluorescence of each sample was measured using an Accuri C6 flow cytometry analyzer (BD Biosciences, CA). Each experimental condition was repeated three times. To generate a titration curve, the value for each sample was determined using the equation:
[formula] where Fsample is the mean fluorescence value, Flow is the fluorescence at the lowest concentration for PC3-PIP cells, and Fhigh is the fluorescence at the highest concentration for PC3-PIP cells. A binding curve was generated using GraphPad Prism 5.0.

PC3-PIP cells [6] = test: Cell viability assay (propidium iodide, FACS); type: cell-based; settings: 24 h, 1.5 μg/ml DOX or equivalent molar amount
Method: PC3-PIP cells were grown and treated as described in the cell quantification assay section, above. The cells were harvested, incubated with 0.5 μg propidium iodide (PI; Biolegend), and their fluorescence intensity was measured in a BD C6 flow cytometer.

T1 sequence (Q04609 44-750): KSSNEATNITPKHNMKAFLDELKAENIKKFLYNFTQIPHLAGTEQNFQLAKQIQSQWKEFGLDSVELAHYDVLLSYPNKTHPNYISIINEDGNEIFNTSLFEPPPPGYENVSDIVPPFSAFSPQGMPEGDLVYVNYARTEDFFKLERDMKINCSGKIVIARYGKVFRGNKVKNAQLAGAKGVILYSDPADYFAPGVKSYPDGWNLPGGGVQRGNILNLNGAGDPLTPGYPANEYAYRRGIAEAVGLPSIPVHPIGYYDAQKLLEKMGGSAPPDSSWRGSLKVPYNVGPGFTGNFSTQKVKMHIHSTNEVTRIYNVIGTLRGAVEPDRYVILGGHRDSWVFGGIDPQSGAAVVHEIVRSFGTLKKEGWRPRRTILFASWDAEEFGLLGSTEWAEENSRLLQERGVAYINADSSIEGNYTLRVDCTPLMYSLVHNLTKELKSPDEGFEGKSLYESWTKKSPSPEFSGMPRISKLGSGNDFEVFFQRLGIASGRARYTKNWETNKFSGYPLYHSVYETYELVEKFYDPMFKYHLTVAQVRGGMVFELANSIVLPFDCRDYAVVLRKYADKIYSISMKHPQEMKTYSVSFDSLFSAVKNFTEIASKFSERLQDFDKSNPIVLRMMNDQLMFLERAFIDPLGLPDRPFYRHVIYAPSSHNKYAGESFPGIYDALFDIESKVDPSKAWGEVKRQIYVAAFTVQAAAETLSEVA

Molecule	mitochondrial membrane potential (TMRE signal) (PC3-PIP cells [1])	Koff (PSMA [2])	Kon (PSMA [2])	binding constant (Ka) to PSMA (PSMA [2])	duration until the fluorescent signal was no longer detected (late time point) [3]	Dmax (PSMA [4]; method GNOM)	Rg (PSMA [4]; method GNOM)	Rg (PSMA [4]; method Guinier)	shift of Rg of PSMA-NB complex from the original Rg of PSMA (43 Å) (PSMA [4])	change of Dmax on binding of PSMA to NB (PSMA [4])	internalization into PSMA-expressing cells (cytoplasm/membrane ratio over time) (PC3-PIP cells [5])	signal intensity in the PC3-PIP tumor ([3]; ex vivo, after 3 h)	signal intensity in the PC3-flu tumor ([3]; ex vivo, after 3 h)	signal intensity in the kidneys ([3]; ex vivo, after 3 h)	binding to PC3-PIP cells versus NB7, FACS (PC3-PIP (PSMA+) cells)	PI signal (late apoptosis and necrosis) (PC3-PIP cells [6])
Carbonyl cyanide 4-(trifluorornethoxy) phenythydrazone [FCCP]	significantly reduced the mitochondrial membrane potential	–	–	–	–	–	–	–	–	–	–	–	–	–	–	–
NB7: anti-PSMA camel nanobody (VHH, ~16 kDa) selected by phage display; PDB 6XXN (protein) VHH: QVQLQESGGGSVQAGGSLRLSCTAPGYTDSNYYMSWFRQAPGKEREWVAGVNTGRGSTSYADSVKGRFTISQDNAKNTMFLQMNSLKPEDTAIYYCAVAACHFCDSLPKTQDEYILWGQGTQVTVSSAAAYPYDVPDYGS	–	3.9e-05 ± 2.8e-07 s⁻¹	710000 ± 450 M⁻¹ s⁻¹	about 7.1×10^5 M^−1 s^−1	> 56 h	120 Å	42.4 Å	48.2 Å	higher Rg	increased Dmax	much faster	–	–	–	–	–
NB8: anti-PSMA camel nanobody (VHH, ~16 kDa) selected by phage display; PDB 6XXO (protein) VHH: QVQLQESGGGSVQAGGSLRLSCARSGWPYSTYSMNWFRQAPGKEREAVAGISSTMSGIIFAESKAGQFTISQDNAKNTVYLQMNNLKPEDTAIYYCAARRDYSLSSSSDDFDYWGQGTQVTVSSAAAYPYDVPDYGS	–	0.00012 ± 5.3e-07 s⁻¹	20000 ± 42 M⁻¹ s⁻¹	about 2×10^4 M^−1 s^−1	32 h	100 Å	39.4 Å	40.5 Å	lower Rg	decreased it	–	171,000 counts/cm^2/s	21,300 counts/cm^2/s	94,700 counts/cm^2/s	–	–
NB13: anti-PSMA camel nanobody (VHH, ~16 kDa) selected by phage display (protein) VHH: QVQLQESGGGSVQTGGSLRLSCAASGYTASFSWIGYFRQAPGKEREGVAVINVGVGSTYYADSVKGRFTISRDNTENTISLEMNSLKPEDTGLYYCAGSLRWSRPPNPISEDAYNYWGQGTQVTVSSAAAYPYDVPDYGS	–	2.2e-05 ± 9.9e-07 s⁻¹	36000 ± 89 M⁻¹ s⁻¹	about 3.6×10^4 M^−1 s^−1	32 h	120 Å	40.5 Å	43.8 Å	lower Rg	increased Dmax	much faster	–	–	–	–	–
NB37: anti-PSMA camel nanobody (VHH, ~16 kDa) selected by phage display; PDB 6XXP (protein) VHH: QVQLQESGGGSVEAGGSLRLSCARSGWPYSTYSMNWFRQAPGKEREAVAGISSTMSGIIFAESKAGQFTISQDNAKNTVYLQMNNLKPEDTAIYYCAARRDYSLSSSSDDFDYWGQGTQVTVSSAAAYPYDVPDYGS	–	7.5e-05 ± 6.6e-07 s⁻¹	22000 ± 53 M⁻¹ s⁻¹	about 2.2×10^4 M^−1 s^−1	24 h	110 Å	38.6 Å	40.4 Å	lower Rg	decreased it	–	–	–	–	–	–
NB7 K43PrK: NB7 with lysine K43 changed to the non-natural amino acid PrK (protein, non-natural residues; left off: small tags and cut ends, NB7 with lysine K43 changed to the non-natural amino acid PrK) VHH: QVQLQESGGGSVQAGGSLRLSCTAPGYTDSNYYMSWFRQAPGXEREWVAGVNTGRGSTSYADSVKGRFTISQDNAKNTMFLQMNSLKPEDTAIYYCAVAACHFCDSLPKTQDEYILWGQGTQVTVSSAAAYPYDVPDYGS	–	–	–	–	–	–	–	–	–	–	–	–	–	–	no significant change in binding	–
NB7cys: NB7 with an added cysteine in the C-terminus (protein, left off: small tags and cut ends, NB7 with an added cysteine in the C-terminus) VHH (part 1 of 2): QVQLQESGGGSVQAGGSLRLSCTAPGYTDSNYYMSWFRQAPGKEREWVAGVNTGRGSTSYADSVKGRFTISQDNAKNTMFLQMNSLKPEDTAIYYCAVAACHFCDSLPKTQDEYILWGQGTQVTVSSAAAYPYDVPDYGS VHH (part 2 of 2): C	–	–	–	–	–	–	–	–	–	–	–	–	–	–	–	did not change the PI signal
